± gives the standard deviation of the averaged measurements.
System: ATP
Assay: switch fluorescence ratio, 500 uM ATP over buffer (Cy3 cluster intensity, sum of 5 cycles each) (fold (ratio)); higher = stronger signal-on switching upon ATP binding; sequences stand for … in TCGTCGGCAGCGTCAGATGTGTATAAGAGACAGTTTTTTTTTTTTTTTTTTTTTTTTT…TC
Conditions: aptamer strand: ATP DNA aptamer (quencher-CACCTGGGGGAGTATTGCGGAGGAAGG + anchor), 100 nM annealed; ATP concentration: 500 uM
Method in brief: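 Imaging in selection buffer was followed by imaging after 15 min with 500 uM ATP at 22 °C, for Cy3-labelled switching-strand clusters annealed to 100 nM quencher-labelled ATP aptamer on a modified Illumina MiSeq flow-cell. Five of these buffer/ATP cycles ran, separated by NaOH stripping and re-annealing. The fluorescence ratio per cluster is summed target-cycle over summed buffer-cycle Cy3 intensity, averaged per switch-domain sequence; clusters outside 100-1000 RFU were removed.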
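Also: ATP exposure 15 min at 22 °C before imaging.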

CATTATAGAT
switch fluorescence ratio: 0.997 ± 0.021

AGGGTGTGAC
switch fluorescence ratio: 1.01 ± 0.036

CATACAATTG
switch fluorescence ratio: 1.06 ± 0.091

ATGGGGTCGA
switch fluorescence ratio: 1 ± 0.051

GGGGTTATTG
switch fluorescence ratio: 0.986 ± 0.038

ATCTTGGTTG
switch fluorescence ratio: 1 ± 0.026

CTTGATTTTT
switch fluorescence ratio: 1 ± 0.016

TCTTAGTTTG
switch fluorescence ratio: 0.986 ± 0.015

ATCTAGGCAG
switch fluorescence ratio: 0.9915 ± 0.0043

TTTCCCGGGC
switch fluorescence ratio: 1.01 ± 0.056

CAATTCACCG
switch fluorescence ratio: 1.04 ± 0.022

GATACCTATG
switch fluorescence ratio: 1.03 ± 0.027

CAATAACTGG
switch fluorescence ratio: 1.01 ± 0.015

GCAAACGTTA
switch fluorescence ratio: 1.07 ± 0.043

GAACTCCGGG
switch fluorescence ratio: 1.1 ± 0.054

CGGTAGTGCG
switch fluorescence ratio: 0.975 ± 0.021

CTCAATTTTA
switch fluorescence ratio: 0.9743 ± 0.006

TGGGGGTGGA
switch fluorescence ratio: 1.01 ± 0.046

TCTCTGTTTT
switch fluorescence ratio: 1.05 ± 0.022

TATGTACTAA
switch fluorescence ratio: 1.08 ± 0.023

GATAATAATG
switch fluorescence ratio: 1.02 ± 0.0061

TTGGTTATGG
switch fluorescence ratio: 1 ± 0.039

GGGCATGGGC
switch fluorescence ratio: 0.9965 ± 0.0015

GCCAAATTTT
switch fluorescence ratio: 0.955 ± 0.035

ATAGGTATGT
switch fluorescence ratio: 0.998 ± 0.023

TATTTGGACG
switch fluorescence ratio: 1.05 ± 0.068

TCCTTTAATG
switch fluorescence ratio: 0.9917 ± 0.0073

TAGGGGGGGC
switch fluorescence ratio: 0.978 ± 0.022

TCATAGATCG
switch fluorescence ratio: 1.01 ± 0.027

CGTGGGCAGT
switch fluorescence ratio: 0.956 ± 0.041

CGCTATTATA
switch fluorescence ratio: 1.09 ± 0.052

ATGGTCATAA
switch fluorescence ratio: 0.993 ± 0.022

AAAAGATAGC
switch fluorescence ratio: 0.989 ± 0.04

CGGTGAAATG
switch fluorescence ratio: 0.975 ± 0.017

GTGCTTGGAA
switch fluorescence ratio: 0.994 ± 0.033

AGGCGGACTG
switch fluorescence ratio: 1.02 ± 0.13

ACGTTTACCA
switch fluorescence ratio: 1.217 ± 0.0099

TTTAATGTAC
switch fluorescence ratio: 1.36 ± 0.32

TCGGATAGGT
switch fluorescence ratio: 1.02 ± 0.025

CGGAAGGGGA
switch fluorescence ratio: 1.05 ± 0.027

TTTTTGTCCA
switch fluorescence ratio: 1 ± 0.041

TTTCCCGACG
switch fluorescence ratio: 1.12 ± 0.11

GCAGTTGGAA
switch fluorescence ratio: 1.058 ± 0.0089

TGCCTAAATA
switch fluorescence ratio: 1 ± 0.031

AGCGATGTCG
switch fluorescence ratio: 0.9885 ± 0.0014

TAGGTTACGG
switch fluorescence ratio: 0.984 ± 0.024

TTTGGTGTCC
switch fluorescence ratio: 0.984 ± 0.017

GGATGGGGGG
switch fluorescence ratio: 0.986 ± 0.016

AAGGGAATAA
switch fluorescence ratio: 1.11 ± 0.11

GGGGTAAACT
switch fluorescence ratio: 1.01 ± 0.034

AAATGTTTGT
switch fluorescence ratio: 1.006 ± 0.0099

TAAGGAGCGG
switch fluorescence ratio: 0.976 ± 0.013

TTCAAATGAG
switch fluorescence ratio: 0.98 ± 0.044

TCGGTTTATA
switch fluorescence ratio: 0.997 ± 0.01

TGGTGTTTGT
switch fluorescence ratio: 0.983 ± 0.029

GATAATGGGT
switch fluorescence ratio: 0.976 ± 0.042

AATAGGCGCG
switch fluorescence ratio: 1.02 ± 0.014

AGGTTAGGTG
switch fluorescence ratio: 1.42 ± 0.34

GACTAGGTCG
switch fluorescence ratio: 1.16 ± 0.22

TATAGGGAGG
switch fluorescence ratio: 0.988 ± 0.027

ATAGGTTTTA
switch fluorescence ratio: 0.976 ± 0.017

TTTGGGAGTT
switch fluorescence ratio: 1.05 ± 0.19

ATTGTGCCTG
switch fluorescence ratio: 1.083 ± 0.0093

TAAGGTGGCT
switch fluorescence ratio: 1.01 ± 0.043

TGTTTCAATT
switch fluorescence ratio: 1.02 ± 0.021

TGCATAGGGG
switch fluorescence ratio: 0.999 ± 0.018

CAGGGGGGTA
switch fluorescence ratio: 1.01 ± 0.016

TATTAAAAGA
switch fluorescence ratio: 0.99 ± 0.03

TACATGCTGC
switch fluorescence ratio: 1.03 ± 0.022

TAAAAGTTTT
switch fluorescence ratio: 1.01 ± 0.011

AAGCATCTAC
switch fluorescence ratio: 2.08 ± 0.32

GCAGTAGCAA
switch fluorescence ratio: 1.08 ± 0.03

AAAGGTCTGG
switch fluorescence ratio: 0.9794 ± 0.0049

TGTTGCGGGC
switch fluorescence ratio: 1 ± 0.12

ACCCTCGCAG
switch fluorescence ratio: 1.748 ± 0.0058

TTTAGGTTCA
switch fluorescence ratio: 0.98 ± 0.041

CGTAGTGGGG
switch fluorescence ratio: 0.993 ± 0.044

CATGTTTGCC
switch fluorescence ratio: 1.02 ± 0.015

AGCCTGTATG
switch fluorescence ratio: 0.9542 ± 0.0046

CGTCAAATAT
switch fluorescence ratio: 1.13 ± 0.041

ATGAGCATGG
switch fluorescence ratio: 1.1 ± 0.016

CCGCGGGTTT
switch fluorescence ratio: 1.08 ± 0.075

CGTTGCTCGA
switch fluorescence ratio: 0.9992 ± 0.0064

ATTCTGGTGC
switch fluorescence ratio: 1.12 ± 0.025

ACGTAAACGC
switch fluorescence ratio: 1.085 ± 0.0018

CGGGTGTTCG
switch fluorescence ratio: 1.02 ± 0.075

TTGCAATTAT
switch fluorescence ratio: 1.26 ± 0.18

AAGGCCAGCG
switch fluorescence ratio: 0.953 ± 0.051

GGGTGGGTTG
switch fluorescence ratio: 1 ± 0.039

CTAGGTGGTT
switch fluorescence ratio: 0.991 ± 0.04

GGAAGGCATA
switch fluorescence ratio: 0.9829 ± 0.0096

ATCTAAGTTC
switch fluorescence ratio: 1.01 ± 0.017

CGAGTCCAAG
switch fluorescence ratio: 1.01 ± 0.026

TGAGGGGAGA
switch fluorescence ratio: 1.02 ± 0.028

ATGTAGTGCA
switch fluorescence ratio: 0.995 ± 0.034

GGTTTTGATC
switch fluorescence ratio: 0.972 ± 0.047

GCCGCTTGCA
switch fluorescence ratio: 0.9973 ± 0.0053

GAGTTAACGG
switch fluorescence ratio: 1 ± 0.0026

AAGTCCGTTT
switch fluorescence ratio: 1.02 ± 0.044

ATCAAACGAG
switch fluorescence ratio: 1.006 ± 0.0073

CTAGTTTTTT
switch fluorescence ratio: 0.9893 ± 0.0062

GGCGTTCTTG
switch fluorescence ratio: 0.962 ± 0.015

CTAGGCACAT
switch fluorescence ratio: 1.1 ± 0.016

TTGAACGAGA
switch fluorescence ratio: 0.998 ± 0.019

TCGTGTAAAC
switch fluorescence ratio: 0.981 ± 0.028

AATGGGGACG
switch fluorescence ratio: 0.985 ± 0.021

AAATTGTTTT
switch fluorescence ratio: 1.01 ± 0.019

CCAAAGCTAG
switch fluorescence ratio: 2.1 ± 0.028

CAGAGTGTGG
switch fluorescence ratio: 0.955 ± 0.026

GCTTTAGTCA
switch fluorescence ratio: 0.967 ± 0.034

TTTTGAAGAT
switch fluorescence ratio: 1.009 ± 0.01

TTTGGATATA
switch fluorescence ratio: 0.9726 ± 0.0041

GTGCGGCCAA
switch fluorescence ratio: 1.02 ± 0.044

TCTCGCTTGG
switch fluorescence ratio: 1.02 ± 0.037

AACGGGGGCT
switch fluorescence ratio: 0.9778 ± 0.006

AAAAGGTTTC
switch fluorescence ratio: 1.02 ± 0.024

GAGTGTCAGC
switch fluorescence ratio: 1 ± 0.035

ATTTTTCGAT
switch fluorescence ratio: 1 ± 0.026

TGGGTCTCTA
switch fluorescence ratio: 1 ± 0.018

AAAGAGTGAT
switch fluorescence ratio: 1.022 ± 0.0062

TGGGGTACCT
switch fluorescence ratio: 1.08 ± 0.077

TTACGGGTAG
switch fluorescence ratio: 1.02 ± 0.0088

TTCAATATTT
switch fluorescence ratio: 1 ± 0.024

GTGGGGGAAG
switch fluorescence ratio: 0.993 ± 0.039

AGGAGCTCTT
switch fluorescence ratio: 0.998 ± 0.0056

CAGTAGAATT
switch fluorescence ratio: 1.02 ± 0.023

ATCACAAATA
switch fluorescence ratio: 1.02 ± 0.024

TTATACGATG
switch fluorescence ratio: 1.01 ± 0.025

AGTTAACCGG
switch fluorescence ratio: 1.006 ± 0.0027

GCTAGCCATT
switch fluorescence ratio: 0.978 ± 0.029

GCACACCAGT
switch fluorescence ratio: 1.04 ± 0.014

TGCTAATCTG
switch fluorescence ratio: 0.958 ± 0.025

TTTCACAAGG
switch fluorescence ratio: 0.9836 ± 0.0089

ACTTTTGGGG
switch fluorescence ratio: 1.005 ± 0.0023

GTATTAAAAG
switch fluorescence ratio: 1 ± 0.049

TTTGAGCTTG
switch fluorescence ratio: 0.981 ± 0.017

GTGCTGGGGG
switch fluorescence ratio: 1.02 ± 0.02

CGCGGAGGGG
switch fluorescence ratio: 1.01 ± 0.049

GGATGGGGGT
switch fluorescence ratio: 0.9972 ± 0.0097

TTTGATACGC
switch fluorescence ratio: 1.04 ± 0.031

GGGGAAACAG
switch fluorescence ratio: 1 ± 0.018

GTTTAAGGGT
switch fluorescence ratio: 0.996 ± 0.055

TACGATATAC
switch fluorescence ratio: 3.09 ± 0.34

CTTTCCCTTT
switch fluorescence ratio: 1.01 ± 0.03

AATAAATTGA
switch fluorescence ratio: 1.02 ± 0.04

CCTGGGGCTT
switch fluorescence ratio: 1.03 ± 0.033

CGGGTTTTAT
switch fluorescence ratio: 1.01 ± 0.028

CTGGGGATCG
switch fluorescence ratio: 1.02 ± 0.043

ACGCCGGCTT
switch fluorescence ratio: 1.272 ± 0.0019

CGAAGGGTGA
switch fluorescence ratio: 1.06 ± 0.02

GGACCTGGCG
switch fluorescence ratio: 1.08 ± 0.15

CGGTTAGGCT
switch fluorescence ratio: 1.06 ± 0.012

TAGGTTTCTT
switch fluorescence ratio: 1.01 ± 0.031

TGGGGGAAA
switch fluorescence ratio: 0.988 ± 0.04

GGACGGGGGA
switch fluorescence ratio: 1.02 ± 0.054

GCTGCAAGGG
switch fluorescence ratio: 1.07 ± 0.063

CCTGAGGGAC
switch fluorescence ratio: 0.99 ± 0.03
